Series [1] concerns HeLa Kyoto. The series is described as follows: solubility in G1/S (NP-40 vs SDS abundance) (log2 ratio); higher = more soluble. Particulars: cell cycle stage: G1/S.
The subject of series [2] is HeLa Kyoto. The series is described as follows: solubility change mitosis vs G1/S (difference of NP-40 vs SDS log2 ratios) (log2 ratio difference); higher = more soluble in mitosis.
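For solubility change mitosis vs G1/S (difference of NP-40 vs SDS log2 ratios) in this document: synchronized HeLa Kyoto cells (double thymidine block for G1/S, nocodazole release for mitosis), protein amounts in NP-40 versus SDS lysates quantified by mass spectrometry, three biological replicates.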
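For solubility in G1/S (NP-40 vs SDS abundance) in this document: HeLa Kyoto cells arrested at G1/S by double thymidine block, proteins quantified by TMT10plex mass spectrometry in mild NP-40 versus SDS extracts, three biological replicates.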

Chain of KLF4 (chain, as listed by the source): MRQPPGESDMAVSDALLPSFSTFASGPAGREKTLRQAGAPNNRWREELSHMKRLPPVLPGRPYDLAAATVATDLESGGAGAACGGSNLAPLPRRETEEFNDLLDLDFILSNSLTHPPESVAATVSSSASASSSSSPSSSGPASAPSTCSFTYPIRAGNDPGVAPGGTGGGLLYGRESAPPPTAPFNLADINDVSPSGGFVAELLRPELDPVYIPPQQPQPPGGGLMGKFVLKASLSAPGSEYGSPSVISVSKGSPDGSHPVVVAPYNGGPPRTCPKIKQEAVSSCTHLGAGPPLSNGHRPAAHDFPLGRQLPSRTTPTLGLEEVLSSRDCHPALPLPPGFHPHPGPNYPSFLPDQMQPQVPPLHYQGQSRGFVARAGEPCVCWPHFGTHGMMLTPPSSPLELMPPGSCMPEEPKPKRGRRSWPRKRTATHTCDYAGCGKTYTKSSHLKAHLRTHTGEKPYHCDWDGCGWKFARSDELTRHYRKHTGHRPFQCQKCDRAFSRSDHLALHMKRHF

Turning to “MENCSAASTFLTDSLELELGTEWCKPPYFSCAVDNRGGGKHFSGESYLCSGALKRLILNLDPLPTNFEEDTLEIFGIQWVTETALVNSSRELFHLFRQQLYNLETLLQSSCDFGKVSTLHCKADNIRQQCVLFLHYVKVFIFRYLKVQNAESHVPVHPYEALEAQLPSVLIDELHGLLLYIGHLSELPSVNIGAFVNQNQIKLFPPSWHLLHLHLDIHWLVLEILYMLGEKLKQVVYGHQFMNLASDNLTNISLFEEHCETLLCDLISLSLNRYDKVRSSESLMSDQCPCLCIKELWVLLIHLLDHRSKWFVSESFWNWLNKLLKTLLEKSSDRRRSSMPVIQSRDPLGFSWWIITHVASFYKFDRHGVPDEMRKVESNWNFVEELLKKSISVQGVILEEQLRMYLHCCLTLCDFWEPNIAIVTILWEYYSKNLNSSFSISWLPFKGLANTMKSPLSMLEMVKTCCCDKQDQELYKSSSSYTIFLCILAKVVKKAMKSNGPHPWKQVKGRIYSKFHQKRMEELTEVGLQNFFSLFLLLAAVAEVEDVASHVLDLLNFLKPAFVTSQRALIWKGHMAFLLMYAQKNLDIGVLAEKFSCAFREKAKEFLVSKNEEMVQRQTIWTLLSIYIDGVQEVFETSYCLYPSHEKLLNDGFSMLLRACRESELRTVLSFLQAVLARIRSMHQQLCQELQRDNVDLFVQSSLSAKERHLAAVASALWRHFFSFLKSQRMSQVVPFSQLADAAADFTLLAMDMPSTAPSDFQPQPVISIIQLFGWDDIICPQVVARYLSHVLQNSTLCEALSHSGYVSFQALTVRSWIRCVLQMYIKNLSGPDDLLIDKNLEEAVEKEYMKQLVKLTRLLFNLSEVKSIFSKAQVEYLSISEDPKKALVRFFEAVGVTYGNVQTLSDKSAMVTKSLEYLGEVLKYIKPYLGKKVFSAGLQLTYGMMGILVKSWAQIFATSKAQKLLFRIIDCLLLPHAVLQQEKELPAPMLSAIQKSLPLYLQGMCIVCCQSQNPNAYLNQLLGNVIEQYIGRFLPASPYVSDLGQHPVLLALRNTATIPPISSLKKCIVQVIRKSYLEYKGSSPPPRLASILAFILQLFKETNTDIYEVELLLPGILKCLVLVSEPQVKRLATENLQYMVKACQVGSEEEPSSQLTSVFRQFIQDYGMRYYYQVYSILETVATLDQQVVIHLISTLTQSLKDSEQKWGLGRNIAQREAYSKLLSHLGQMGQDEMQRLENDNT [MMS22L]”, in series [1], the “solubility in G1/S (log2)” value was -0.523. For the same substance, the “solubility change mitosis (log2)” value in series [2] is -0.109.
As to “MYRSGERLLGSHALPAEQRDFLPLETTNNNNNHHQPGAWARRAGSSASSPPSASSSPHPSAAVPAADPADSASGSSNKRKRDNKASGGRAAGGGRADGGGVVYSGTPWKRRNYNQGVVGLHEEISDFYEYMSPRPEEEKMRMEVVNRIESVIKELWPSADVQIFGSFKTGLYLPTSDIDLVVFGKWENLPLWTLEEALRKHKVADEDSVKVLDKATVPIIKLTDSFTEVKVDISFNVQNGVRAADLIKDFTKKYPVLPYLVLVLKQFLLQRDLNEVFTGGIGSYSLFLMAVSFLQLHPREDACIPNTNYGVLLIEFFELYGRHFNYLKTGIRIKDGGSYVAKDEVQKNMLDGYRPSMLYIEDPLQPGNDVGRSSYGAMQVKQAFDYAYVVLSHAVSPIAKYYPNNETESILGRIIRVTDEVATYRDWISKQWGLKNRPEPSCNGPVSSSSATQSSSSDVDSDATPCKTPKQLLCRPSTGNRVGSQDVSLESSQAVGKMQSTQTTNTSNSTNKSQHGSARLFRSSSKGFQGTTQTSHGSLMTNKQHQGKSNNQYYHGKKRKHKRDAPLSDLCR [PAPD5]”, the “solubility in G1/S (log2)” value in series [1] was -0.654. The “solubility change mitosis (log2)” value in series [2] was 0.189.
As for “MNRIRIHVLPTNRGRITPVPRSQEPLSCAFTHRPCSHPRLEGQEFCIKHILEDKNAPFKQCSYISTKNGKRCPNAAPKPEKKDGVSFCAEHVRRNALALHAQMKKTNPGPVGETLLCQLSSYAKTELGSQTPESSRSEASRILDEDSWSDGEQEPITVDQTWRGDPDSEADSIDSDQEDPLKHAGVYTAEEVALIMREKLIRLQSLYIDQFKRLQHLLKEKKRRYLHNRKVEHEALGSSLLTGPEGLLAKERENLKRLKCLRRYRQRYGVEALLHRQLKERRMLATDGAAQQAHTTRSSQRCLAFVDDVRCSNQSLPMTRHCLTHICQDTNQVLFKCCQGSEEVPCNKPVPVSLSEDPCCPLHFQLPPQMYKPEQVLSVPDDLEAGPMDLYLSAAELQPTESLPLEFSDDLDVVGDGMQCPPSPLLFDPSLTLEDHLVKEIAEDPVDILGQMQMAGDGCRSQGSRNSEKASAPLSQSGLATANGKPEPTSIS [KANSL2]”, the “solubility in G1/S (log2)” value in series [1] was determined as 0.453. In series [2], the “solubility change mitosis (log2)” value was -0.0302.
On to “MAEAVERTDELVREYLLFRGFTHTLRQLDAEIKADKEKGFRVDKIVDQLQQLMQVYDLAALRDYWSYLERRLFSRLEDIYRPTIHKLKTSLFRFYLVYTIQTNRNDKAQEFFAKQATELQNQAEWKDWFVLPFLPSPDTNPTFATYFSRQWADTFIVSLHNFLSVLFQCMPVPVILNFDAECQRTNQVQEENEVLRQKLFALQAEIHRLKKEEQQPEEEEALVQHKLPPYVSNMDRLGDSELAMVCSQRNASLSQSPRVGFLSSLLPQSKKSPSRLSPAQGPPQPQSSAKKESFGGQGTKGKDPTSGAKDGKSLLSGLATGESGWSQHRQRRLQDHGKERKELFSTTTSQCAEKKPEASGPEAEPCPELHTEPVEPLTRASSAGPEGGGVRPEQPFIVLGQEEYGEHHSSIMHCRVDCSGRRVASLDVDGVIKVWSFNPIMQTKASSISKSPLLSLEWATKRDRLLLLGSGVGTVRLYDTEAKKNLCEININDNMPRILSLACSPNGASFVCSAAAPSLTSQVDFSAPDIGSKGMNQVPGRLLLWDTKTMKQQLQFSLDPEPIAINCTAFNHNGNLLVTGAADGVIRLFDMQQHECAMSWRAHYGEVYSVEFSYDENTVYSIGEDGKFIQWNIHKSGLKVSEYSLPSDATGPFVLSGYSGYKQVQVPRGRLFAFDSEGNYMLTCSATGGVIYKLGGDEKVLESCLSLGGHRAPVVTVDWSTAMDCGTCLTASMDGKIKLTTLLAHKA [WDR91]”, for which the “solubility in G1/S (log2)” value in series [1] is -0.122. Further, in series [2], the “solubility change mitosis (log2)” value turned out to be 0.0607.
As to “MSEIRKDTLKAILLELECHFTWNLLKEDIDLFEVEDTIGQQLEFLTTKSRLALYNLLAYVKHLKGQNKDALECLEQAEEIIQQEHSDKEEVRSLVTWGNYAWVYYHMDQLEEAQKYTGKIGNVCKKLSSPSNYKLECPETDCEKGWALLKFGGKYYQKAKAAFEKALEVEPDNPEFNIGYAITVYRLDDSDREGSVKSFSLGPLRKAVTLNPDNSYIKVFLALKLQDVHAEAEGEKYIEEILDQISSQPYVLRYAAKFYRRKNSWNKALELLKKALEVTPTSSFLHHQMGLCYRAQMIQIKKATHNRPKGKDKLKVDELISSAIFHFKAAMERDSMFAFAYTDLANMYAEGGQYSNAEDIFRKALRLENITDDHKHQIHYHYGRFQEFHRKSENTAIHHYLEALKVKDRSPLRTKLTSALKKLSTKRLCHNALDVQSLSALGFVYKLEGEKRQAAEYYEKAQKIDPENAEFLTALCELRLSI [IFIT5]”, the “solubility in G1/S (log2)” value in series [1] was found to be 0.129. For the same substance, the “solubility change mitosis (log2)” value in series [2] worked out at 0.0621.
Regarding “MTMGDKKSPTRPKRQAKPAADEGFWDCSVCTFRNSAEAFKCSICDVRKGTSTRKPRINSQLVAQQVAQQYATPPPPKKEKKEKVEKQDKEKPEKDKEISPSVTKKNTNKKTKPKSDILKDPPSEANSIQSANATTKTSETNHTSRPRLKNVDRSTAQQLAVTVGNVTVIITDFKEKTRSSSTSSSTVTSSAGSEQQNQSSSGSESTDKGSSRSSTPKGDMSAVNDESF [RYBP]”, in series [1], the “solubility in G1/S (log2)” value worked out at 0.252. In addition, in series [2], the “solubility change mitosis (log2)” value stood at 0.0865.
As for KLF4, in series [1], the “solubility in G1/S (log2)” value was -0.0723. The “solubility change mitosis (log2)” value in series [2] stood at 0.0866.
In the case of “MSANNSPPSAQKSVLPTAIPAVLPAASPCSSPKTGLSARLSNGSFSAPSLTNSRGSVHTVSFLLQIGLTRESVTIEAQELSLSAVKDLVCSIVYQKFPECGFFGMYDKILLFRHDMNSENILQLITSADEIHEGDLVEVVLSALATVEDFQIRPHTLYVHSYKAPTFCDYCGEMLWGLVRQGLKCEGCGLNYHKRCAFKIPNNCSGVRKRRLSNVSLPGPGLSVPRPLQPEYVALPSEESHVHQEPSKRIPSWSGRPIWMEKMVMCRVKVPHTFAVHSYTRPTICQYCKRLLKGLFRQGMQCKDCKFNCHKRCASKVPRDCLGEVTFNGEPSSLGTDTDIPMDIDNNDINSDSSRGLDDTEEPSPPEDKMFFLDPSDLDVERDEEAVKTISPSTSNNIPLMRVVQSIKHTKRKSSTMVKEGWMVHYTSRDNLRKRHYWRLDSKCLTLFQNESGSKYYKEIPLSEILRISSPRDFTNISQGSNPHCFEIITDTMVYFVGENNGDSSHNPVLAATGVGLDVAQSWEKAIRQALMPVTPQASVCTSPGQGKDHKDLSTSISVSNCQIQENVDISTVYQIFADEVLGSGQFGIVYGGKHRKTGRDVAIKVIDKMRFPTKQESQLRNEVAILQNLHHPGIVNLECMFETPERVFVVMEKLHGDMLEMILSSEKSRLPERITKFMVTQILVALRNLHFKNIVHCDLKPENVLLASAEPFPQVKLCDFGFARIIGEKSFRRSVVGTPAYLAPEVLRSKGYNRSLDMWSVGVIIYVSLSGTFPFNEDEDINDQIQNAAFMYPPNPWREISGEAIDLINNLLQVKMRKRYSVDKSLSHPWLQDYQTWLDLREFETRIGERYITHESDDARWEIHAYTHNLVYPKHFIMAPNPDDMEEDP [PRKD3]”, the “solubility in G1/S (log2)” value in series [1] is -0.25. Also, the “solubility change mitosis (log2)” value in series [2] is -0.119.
Regarding “MDEQPRLMHSHAGVGMAGHPGLSQHLQDGAGGTEGEGGRKQDIGDILQQIMTITDQSLDEAQARKHALNCHRMKPALFNVLCEIKEKTVLSIRGAQEEEPTDPQLMRLDNMLLAEGVAGPEKGGGSAAAAAAAAASGGAGSDNSVEHSDYRAKLSQIRQIYHTELEKYEQACNEFTTHVMNLLREQSRTRPISPKEIERMVSIIHRKFSSIQMQLKQSTCEAVMILRSRFLDARRKRRNFNKQATEILNEYFYSHLSNPYPSEEAKEELAKKCGITVSQVSNWFGNKRIRYKKNIGKFQEEANIYAAKTAVTATNVSAHGSQANSPSTPNSAGSSSSFNMSNSGDLFMSVQSLNGDSYQGAQVGANVQSQVDTLRHVISQTGGYSDGLAASQMYSPQGISANGGWQDATTPSSVTSPTEGPGSVHSDTSN [PBX1]”, the “solubility in G1/S (log2)” value in series [1] is 0.177. Further, in series [2], the “solubility change mitosis (log2)” value was 0.0731.
As to “MGAAAAEADRTLFVGNLETKVTEELLFELFHQAGPVIKVKIPKDKDGKPKQFAFVNFKHEVSVPYAMNLLNGIKLYGRPIKIQFRSGSSHAPQDVSLSYPQHHVGNSSPTSTSPSRYERTMDNMTSSAQIIQRSFSSPENFQRQAVMNSALRQMSYGGKFGSSPLDQSGFSPSVQSHSHSFNQSSSSQWRQGTPSSQRKVRMNSYPYLADRHYSREQRYTDHGSDHHYRGKRDDFFYEDRNHDDWSHDYDNRRDSSRDGKWRSSRH [RBM7]”, the “solubility in G1/S (log2)” value in series [1] turned out to be 0.568. Further, the “solubility change mitosis (log2)” value in series [2] was found to be 0.189.
“MASASARGNQDKDAHFPPPSKQSLLFCPKSKLHIHRAEISKIMRECQEESFWKRALPFSLVSMLVTQGLVYQGYLAANSRFGSLPKVALAGLLGFGLGKVSYIGVCQSKFHFFEDQLRGAGFGPQHNRHCLLTCEECKIKHGLSEKGDSQPSAS [OCIAD2]”: the “solubility in G1/S (log2)” value in series [1] came to 0.0856. In addition, the “solubility change mitosis (log2)” value in series [2] is -0.0442.

(Values after the supplement of paper PMC5998384.)
